Experimental findings from article PMC3587421, “Native Tertiary Structure and Nucleoside Modifications Suppress tRNA’s Intrinsic Ability to Activate the Innate Immune Sensor PKR” are described below.

One may read the Kd as the constant that tells how readily two partners part at equilibrium.

The data set concerns the target PKR dsRBD (P20) (UniProt P19525 1-184). Nature of the data set: EMSA; 0.1 mg/mL herring sperm DNA competitor; Hill 2.9; 25 mM Hepes-KOH pH 7.5, 10 mM NaCl, 5% glycerol, 5 mM DTT, 0.1 mM EDTA, 0.1 mg/mL tRNAPhe or herring sperm DNA; room temperature 10 min; 10% native gel, 0.5x TB, 16 C. Conditions: protein: recombinant; chain copies: 2; label: 5'-32P; tRNA fold, monomer, ~20 bp. In general terms: Mobility shift assays separate free from complexed probe on a gel.

Chain of PKR dsRBD (P20) (P19525 1-184): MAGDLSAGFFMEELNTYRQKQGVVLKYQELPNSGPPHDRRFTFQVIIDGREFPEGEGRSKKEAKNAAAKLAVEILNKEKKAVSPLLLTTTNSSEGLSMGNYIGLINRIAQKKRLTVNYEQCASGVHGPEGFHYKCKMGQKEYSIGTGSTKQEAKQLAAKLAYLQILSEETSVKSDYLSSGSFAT

B1: T7 mt-tRNALeu WT (monomer) (structured_RNA)
RNA: UUAAGAUGGCAGAGCCCGGUAAUCGCAUAAAACUUAAAACUUUACAGUCAGAGGUUCAAUUCCUCUUCUUAACACCA
modifications: none (unmodified transcript)
Consider B1, for which the Kd is 5.1 µM.
